We go through two molecules from patent US20250258178A1 (SHIONOGI, published 2025).

In one experiment the target is T1, Peptide #21 (human).
T1 construct: 15-mer of human HRG printed on a PEPperCHIP peptide microarray
T1 peptide: HPHGHHPHCHDFQDY
Briefly: peptide microarray, fluorescent anti-mouse IgG. How it is done:
(§1) An overlapping peptide scanning method was performed to find out specific antibody-binding peptide epitopes. The amino acid sequence of the HRG protein was obtained in NCBI protein database. PEPperPrint (registered trademark) (Heidelberg, Germany) was commissioned to prepare PEPperCHIP peptide microarrays designed from HRG protein sequences. Each peptide consisted of an overlapping peptide library having 15 amino acid residues overlapping 14 amino acid residues and was extended at the N- and C-terminus with a neutral GSGSGSG linker to ensure that the peptides were separated from each other. […] After treatment of 21 types of anti-HRG monoclonal antibodies, it stained with an anti-mouse IgG polyclonal secondary antibody followed by reading fluorescence intensity on a scanner to quantify protein-antibody binding.
(§2) Each microarray was processed as follows. Before incubation with a sample, a standard buffer was applied on slides followed by treating with a blocking buffer. The microarray was treated with a fluorescently-labeled anti-mouse IgG secondary antibody followed by the measurement of background fluorescence intensity caused by non-specific interactions using a scanner.
(§3) The microarray was incubated with the 21 types of anti-HRG monoclonal antibodies. The microarray was stained with a fluorescently labeled anti-mouse IgG secondary antibody. The fluorescence intensity at each position was measured by a scanner.

The target in a further experiment is T2, Peptide #20 (human).
T2 construct: 15-mer of human HRG printed on a PEPperCHIP peptide microarray
T2 peptide: HHPHGHHPHCHDFQD
Briefly: peptide microarray, fluorescent anti-mouse IgG. How it is done:
as §1, §2, §3

The target of another experiment is T3, Peptide #19 (human).
T3 construct: 15-mer of human HRG printed on a PEPperCHIP peptide microarray
T3 peptide: GHHPHGHHPHCHDFQ
Kind of experiment: peptide microarray, fluorescent anti-mouse IgG. How it is done: as §1, §2, §3

A further experiment has as its target T4, Peptide #18 (human).
T4 construct: 15-mer of human HRG printed on a PEPperCHIP peptide microarray
T4 peptide: HGHHPHGHHPHCHDF
Briefly: peptide microarray, fluorescent anti-mouse IgG. How it is done:
as §1, §2, §3

The target in the next experiment is T5, Peptide #13 (human).
T5 construct: 15-mer of human HRG on the peptide microarray; the printed position spans only 14 residues
T5 peptide: HGHHPHGHHPHGHHP
Briefly: peptide microarray, fluorescent anti-mouse IgG. How it is done:
as §1, §2, §3

The next experiment addresses T6, Peptide #16 (human).
T6 construct: 15-mer of human HRG on the peptide microarray; the printed position spans only 14 residues
T6 peptide: HPHGHHPHGHHPHCH
Briefly: peptide microarray, fluorescent anti-mouse IgG. How it is done:
as §1, §2, §3

Another experiment addresses T7, Peptide #12 (human).
T7 construct: 15-mer of human HRG on the peptide microarray; the printed position spans only 14 residues
T7 peptide: PHGHHPHGHHPHGHH
Kind of experiment: peptide microarray, fluorescent anti-mouse IgG. How it is done:
as §1, §2, §3

The target in the next experiment is T8, Peptide #24 (human).
T8 construct: 15-mer of human HRG printed on a PEPperCHIP peptide microarray
T8 peptide: GHHPHCHDFQDYGPC
Briefly: peptide microarray, fluorescent anti-mouse IgG. How it is done:
as §1, §2, §3

The target in a further experiment is T9, Peptide #22 (human).
T9 construct: 15-mer of human HRG printed on a PEPperCHIP peptide microarray
T9 peptide: PHGHHPHCHDFQDYG
Kind of experiment: peptide microarray, fluorescent anti-mouse IgG. How it is done: as §1, §2, §3

In the next experiment the target is T10, Peptide #26 (human).
T10 construct: 15-mer of human HRG printed on a PEPperCHIP peptide microarray
T10 peptide: HPHCHDFQDYGPCDP
Briefly: peptide microarray, fluorescent anti-mouse IgG. How it is done:
as §1, §2, §3

In another experiment the target is T11, Peptide #23 (human).
T11 construct: 15-mer of human HRG printed on a PEPperCHIP peptide microarray
T11 peptide: HGHHPHCHDFQDYGP
Kind of experiment: peptide microarray, fluorescent anti-mouse IgG. How it is done: as §1, §2, §3

Experiment [1] deals with T12, human histidine-rich glycoprotein (HRG), purified from human plasma (human, UniProt P04196 19-525).
T12 construct: also called human purified HRG; human purified HRG protein
T12 sequence: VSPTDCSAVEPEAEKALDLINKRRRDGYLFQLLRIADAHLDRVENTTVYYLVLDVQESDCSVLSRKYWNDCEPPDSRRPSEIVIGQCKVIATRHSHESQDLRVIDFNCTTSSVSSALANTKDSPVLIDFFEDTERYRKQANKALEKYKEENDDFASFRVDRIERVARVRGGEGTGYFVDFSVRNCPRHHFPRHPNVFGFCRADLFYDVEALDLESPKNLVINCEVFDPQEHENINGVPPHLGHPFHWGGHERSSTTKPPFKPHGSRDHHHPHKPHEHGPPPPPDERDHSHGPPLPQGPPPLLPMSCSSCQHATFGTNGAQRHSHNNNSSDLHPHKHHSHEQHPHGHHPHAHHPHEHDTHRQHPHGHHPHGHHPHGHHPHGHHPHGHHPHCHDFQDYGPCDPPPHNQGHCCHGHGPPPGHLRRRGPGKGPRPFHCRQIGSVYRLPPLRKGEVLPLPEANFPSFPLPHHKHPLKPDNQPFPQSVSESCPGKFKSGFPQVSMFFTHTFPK
Kind of experiment: sandwich ELISA, HRG captured by solid phase 14-6F. How it is done:
(§4) The capture antibody solution was dispensed at 25 μL per well into 384-well Maxisorp plates (NUNC), and the plates were incubated at room temperature for 3 hours. The plates were washed twice with 120 μL of washing solution per well (0.05% Tween 20-containing PBS). A blocking solution (1% BSA-containing PBS) was dispensed at 30 μL per well, and the plates were incubated at room temperature for 3 hours. The blocking solution was removed followed by dispensing the standard substance for evaluation at 20 μL per well (n=2), and the plates were incubated at room temperature for 3 hours. After washing the plates four times with the washing solution as described above, the solution of each detector antibody was dispensed at 10 μL per well, followed by dispensing a horseradish peroxidase-streptavidin solution (0.05 μg/mL) at 10 μL per well, and the plates were incubated at room temperature for 1 hour. After washing the plates four times with the washing solution as described above, a chromogenic substrate solution (TMB (3,3′,5,5′-tetramethylbenzidine)) was dispensed at 20 μL per well followed by incubating the plates at room temperature for 10 minutes, then a reaction stop solution 0.5 M H₂SO₄ was added at 20 μL/well, and the absorbance at 450 nm was measured.
(§5) The results regarding the evaluation of combinations chosen from 21 types of anti-HRG monoclonal antibodies are shown in Table 1. In Table 1, the absorbance at a wavelength of 450 nm of each combination was determined as follows: less than 1.0 OD: −, 1.0 OD or more and less than 2.0 OD: +, 2.0 OD or more and less than 3.0 OD: ++, and 3.0 OD or more: +++. The combinations of antibodies which could construct a sandwich ELISA system having enough level of absorbance change were 86 sets evaluated as ++ or +++ in Table 1.

Another experiment deals with T13, Peptide #3 (human).
T13 construct: 15-mer of human HRG printed on a PEPperCHIP peptide microarray
T13 peptide: HSHGPPLPQGPPPLL
Briefly: peptide microarray, fluorescent anti-mouse IgG. How it is done:
as §1, §2, §3

For a further experiment, the target named is T14, Peptide #8 (human).
T14 construct: 15-mer of human HRG printed on a PEPperCHIP peptide microarray
T14 peptide: PLPQGPPPLLPMSCS
Briefly: peptide microarray, fluorescent anti-mouse IgG. How it is done: as §1, §2, §3

A further experiment deals with T15, Peptide #2 (human).
T15 construct: 15-mer of human HRG printed on a PEPperCHIP peptide microarray
T15 peptide: DHSHGPPLPQGPPPL
Kind of experiment: peptide microarray, fluorescent anti-mouse IgG. How it is done: as §1, §2, §3

A further experiment concerns the target T16, Peptide #5 (human).
T16 construct: 15-mer of human HRG printed on a PEPperCHIP peptide microarray
T16 peptide: HGPPLPQGPPPLLPM
Kind of experiment: peptide microarray, fluorescent anti-mouse IgG. How it is done:
as §1, §2, §3

A further experiment deals with T17, Peptide #4 (human).
T17 construct: 15-mer of human HRG printed on a PEPperCHIP peptide microarray
T17 peptide: SHGPPLPQGPPPLLP
Kind of experiment: peptide microarray, fluorescent anti-mouse IgG. How it is done: as §1, §2, §3

The target in experiment [2] is T12, human histidine-rich glycoprotein …. Briefly: sandwich ELISA, HRG captured by solid phase 9-1F. How it is done:
as §4, §5

For experiment [3] the target is unchanged. Briefly: sandwich ELISA, HRG captured by solid phase 75-2D. How it is done:
as §4, §5

B1: anti-HRG monoclonal antibody 75-2D (antibody, V domains shown)
VH: QVQLQQSGAELMKPGASVKISCKATGYTFSSYWIEWVKQRPGHGLEWIGEILPGSGRTNYNEKFKGKATFTADTSSNTAYMQLSSLTSEDSAVYYCARYSYFYYFDYWGQGTTLTVSS
VL: DNVLTQSPAIMSASLGERVTMTCTASSSVSSSYLHWYQQKPGSSPKLWIYSTSNLASGVPARFSGSGSGTSYSLTISSMEAEDAATYYCHQYHRSPWTFGGGTKLEIK
notes: Mouse hybridoma monoclonal; also called clone No. 75-2D
For B1, the binding result with Peptide #21, in the experiment with Peptide #20, with Peptide #19, with Peptide #18, with Peptide #13 and with Peptide #16 was “binds” each time. In addition, the binding result with Peptide #12, in the experiment with Peptide #24, with Peptide #22, with Peptide #26 and with Peptide #23 was “binds” in each case.

B2: anti-HRG monoclonal antibody 69-1A (antibody, V domains shown)
VH: EVKLEESGGGLVQPGGSMKLSCAASGFTFSDAWMDWVRQSPEKGLEWVAEIRSKANNHGTYYAESVKGRFTISRDDSKSSVYLRMNSLSAEDTGIYYCTRPFAYWGQGTLVTVSA
VL: DVVVTQTPLSLPVSLGDQASISCRSSQSLVHIDGNTYFHWYVQKPGQSPKLLIYKVSNRFSGVPDRFSGSGSGTDFTLKISRVEAEDLGVYFCSQSTHVPLTFGAGTKLELK
notes: Mouse hybridoma monoclonal; also called clone No. 69-1A
Consider B2, for which the “absorbance at 450 nm (OD450)” value in experiment [1] lay within 1 to 2 od; in [3], 2 to 3 od. Besides, the binding result in the experiment with Peptide #3, with Peptide #8, with Peptide #2, with Peptide #5 and with Peptide #4 was “binds” in each case. Besides, the “absorbance at 450 nm” value in [2] was less than 1 OD.
